Test results taken from publication PMC10527052, “X-ray Crystallographic Study of Preferred Spacing by the NF-κB p50 Homodimer on κB DNA” (Biomolecules, 2023).

Legend:
[1] = target: T1, NF-kB p50 RHR homodimer (mouse (murine), UniProt P25799 39-363); experiment: X-ray crystallography; 12-bp spacing, 2.80 A; 2:1 DNA:p50 dimer; second duplex almost unbound, contributes terminal G; Co-crystal structures only; crystallization conditions not in the material; protein stock in 25 mM Tris-HCl pH 7.4, 50 mM NaCl, 1 mM DTT; conditions: protein: recombinant; chain copies: 2; blunt; 2 duplexes per p50 dimer, stacked end-to-end
[2] = target: T1, NF-kB p50 RHR homodimer; experiment: X-ray crystallography; 11-bp spacing, 3.0 A; Co-crystal structures only; crystallization conditions not in the material; protein stock in 25 mM Tris-HCl pH 7.4, 50 mM NaCl, 1 mM DTT; conditions: protein: recombinant; chain copies: 2
[3] = target: the molecule itself; experiment: crystal structure; p50 RHR homodimer co-crystallised with κB DNA (IL-6 17-mer, 2.80 Å; NGAL 10-mer, 2.80 Å; Test 16-mer, 3.0 Å); hanging or sitting drop vapor diffusion; one complex per asymmetric unit
[4] = target: T1, NF-kB p50 RHR homodimer; experiment: X-ray crystallography; 11-bp spacing, 2.80 A; Co-crystal structures only; crystallization conditions not in the material; protein stock in 25 mM Tris-HCl pH 7.4, 50 mM NaCl, 1 mM DTT; conditions: protein: recombinant; chain copies: 2; blunt

B1: NGAL kB DNA 10-mer (dsDNA)
DNA 1: GGGAATGTCC
DNA 2: GGACATTCCC
binding result [1]: binds

B2: Test kB-like DNA 16-mer (dsDNA)
DNA 1: TCAGGGGAATTCCCCTC
DNA 2: AGAGGGGAATTCCCCTG
binding result [2]: binds

B3: murine NF-κB p50 subunit Rel homology region (amino acid residues 39–363) (domain or fragment, UniProt P25799 39-363, looked up)
chain: GPYLQILEQPKQRGFRFRYVCEGPSHGGLPGASSEKNKKSYPQVKICNYVGPAKVIVQLVTNGKNIHLHAHSLVGKHCEDGVCTVTAGPKDMVVGFANLGILHVTKKKVFETLEARMTEACIRGYNPGLLVHSDLAYLQAEGGGDRQLTDREKEIIRQAAVQQTKEMDLSVVRLMFTAFLPDSTGSFTRRLEPVVSDAIYDSKAPNASNLKIVRMDRTAGCVTGGEEIYLLCDKVQKDDIQIRFYEEEENGGVWEGFGDFSPTDVHRQFAIVFKTPKYKDVNITKPASVFVQLRRKSDLETSEPKPFLYYPEIKDKEEVQRKRQK
notes: 351-363 disordered in the crystals; murine amino acid numbering; also called p50 RHR; NF-κB p50 homodimer; source: E. coli BL21 (DE3), pET11a, purified (SP Sepharose, Superdex 75 size exclusion)
stoichiometry N [3]: 2

B4: IL-6 kB DNA 17-mer (dsDNA)
DNA 1: TGTGGGATTTTCCCATG
DNA 2: CATGGGAAAATCCCACA
binding result [4]: binds
